According to the RNAGym collection of RNA variant scans (doi:10.7554/elife.80360):

B1: Hairpin Ribozyme (parent)
chain: GUCCUCUUUCACGUGCGCGUGAAAGAGAGAAGUGAACCAGAGAAACACACGUUGUGGUAUAUUACCUGGUA

Variants of: B1
Experiment: self-cleavage, relative activity (ratio to wild type); higher = more cleavage; co-transcriptional

Variant	self-cleavage
C6A A26G	0.281
C6A A26U	0.364
C6A A30G	0.131
C6A A31C	0.1
C6A A31G	0.446
C6A A31U	0.0881
C6A A36C	0.393
C6A A36G	0.595
C6A A36U	0.384
C6A A39G	0.243
C6A A39U	0.33
C6A A41G	0.439
C6A A43U	0.131
C6A A45C	0.12
C6A A49C	0.112
C6A A49G	0.204
C6A A59G	0.178
C6A A61G	0.137
C6A A61U	0.182
C6A A64G	0.444
C6A A71U	0.423
C6A C10A	0.404
C6A C12G	0.623
C6A C37A	0.236

Variant	self-cleavage
C6A C37U	0.505
C6A C46G	0.189
C6A C50U	0.239
C6A G13A	0.494
C6A G13U	0.592
C6A G15A	0.54
C6A G17U	0.553
C6A G19A	0.599
C6A G25A	0.546
C6A G34C	1.08
C6A G40A	0.236
C6A G40C	0.109
C6A G40U	0.103
C6A G42C	0.239
C6A G51A	0.765
C6A G54A	0.342
C6A G54U	0.379
C6A G56C	0.128
C6A G57A	0.107
C6A G57C	0.0868
C6A G57U	0.246
C6A G68A	0.176
C6A G69C	0.236
C6A G69U	0.121

Variant	self-cleavage
C6A U8G	0.447
C6A U9G	0.419
C6A U14A	0.612
C6A U33G	0.149
C6A U52A	0.588
C6A U52C	0.619
C6A U53G	0.422
C6A U58G	0.559
C6A U62C	0.157
C6A U63G	0.191
C6A U67C	0.15
C6G	0.521
C6G A11G	0.456
C6G A23C	0.122
C6G A24C	0.192
C6G A24G	0.337
C6G A30C	0.156
C6G A30G	0.14
C6G A35C	0.499
C6G A36U	0.215
C6G A39G	0.197
C6G A41G	0.47
C6G A43C	0.11
C6G A45C	0.163

Variant	self-cleavage
C6G A47C	0.235
C6G A49G	0.286
C6G A49U	0.107
C6G A59C	0.0783
C6G A59G	0.121
C6G A61C	0.0806
C6G A71G	0.574
C6G C10U	0.305
C6G C16U	0.627
C6G C18A	0.645
C6G C18G	0.395
C6G C18U	0.613
C6G C37A	0.158
C6G C37G	0.142
C6G C38G	0.0998
C6G C38U	0.332
C6G C48U	0.0659
C6G C50A	0.14
C6G C50G	0.109
C6G C65G	0.23
C6G C66A	0.239
C6G C66U	0.173
C6G G13U	0.27
C6G G15U	0.706

Variant	self-cleavage
C6G G17A	0.491
C6G G17C	0.365
C6G G19A	0.45
C6G G19C	0.328
C6G G21A	0.179
C6G G25U	0.475
C6G G29A	0.138
C6G G29C	0.146
C6G G32A	0.106
C6G G32U	0.116
C6G G34A	1.02
C6G G40A	0.207
C6G G40C	0.0776
C6G G42A	0.0986
C6G G42C	0.157
C6G G51U	0.44
C6G G56A	0.149
C6G G56C	0.175
C6G G57C	0.124
C6G G69C	0.115
C6G G69U	0.188
C6G U7C	0.299
C6G U7G	0.131
C6G U9C	0.436

Variant	self-cleavage
C6G U14A	0.634
C6G U14G	0.374
C6G U20A	0.242
C6G U33A	0.155
C6G U52C	0.595
C6G U60A	0.496
C6G U60G	0.31
C6G U67C	0.151
C6G U67G	0.146
C6U	0.826
C6U A22C	0.493
C6U A22U	0.789
C6U A24C	0.747
C6U A28C	0.428
C6U A28G	0.734
C6U A30U	0.152
C6U A31G	0.451
C6U A36G	0.834
C6U A39G	0.304
C6U A41U	0.977
C6U A44U	0.12
C6U A45C	0.0819
C6U A47C	0.283
C6U A47G	0.107

Variant	self-cleavage
C6U A47U	0.0966
C6U A49G	0.571
C6U A59C	0.251
C6U A59G	0.266
C6U A59U	0.127
C6U A61G	0.155
C6U A61U	0.0757
C6U A71G	0.82
C6U A71U	0.708
C6U C10A	0.55
C6U C10U	0.582
C6U C12A	0.656
C6U C12G	0.661
C6U C16A	0.85
C6U C18A	0.885
C6U C37U	0.6
C6U C38G	0.189
C6U C38U	0.37
C6U C46A	0.0705
C6U C46G	0.204
C6U C65G	0.232
C6U C66U	0.309
C6U G13U	0.6
